Source: patent US20140044730A1

Key:
[1] = molecular target: human PCSK9 with a C-terminal myc-myc hexahistidine tag and a D374Y mutation (human) (UniProt Q8NBP7); assay: cell-based or functional assay
[2] = molecular target: human PCSK9 with a C-terminal myc-myc-hexahistidine tag (human) (UniProt Q8NBP7); assay: cell-based or functional assay
[3] = molecular target: recombinant cynomolgus monkey PCSK9 with a C-terminal myc-myc hexahistidine tag (cynomolgus monkey); assay: cell-based or functional assay
[4] = molecular target: human PCSK9 with a C-terminal myc-myc-hexahistidine tag (human) (UniProt Q8NBP7); assay: SPR 25C, purified mAb captured
[5] = molecular target: human PCSK9 with a C-terminal myc-myc-hexahistidine tag (human) (UniProt Q8NBP7); assay: SPR 25C pH 7.4, purified mAb captured
[6] = molecular target: human PCSK9 with a C-terminal myc-myc-hexahistidine tag (human) (UniProt Q8NBP7); assay: SPR 25C pH 6.0, purified mAb captured
[7] = molecular target: human PCSK9 with a C-terminal myc-myc-hexahistidine tag (human) (UniProt Q8NBP7); assay: blocking ELISA, hPCSK9-mmH vs coated hLDLR EGFA-hFc
[8] = molecular target: human PCSK9 with a C-terminal myc-myc-hexahistidine tag (human) (UniProt Q8NBP7); assay: blocking ELISA pH 7.2, 500 pM hPCSK9-mmH vs coated hLDLR EGFA-hFc
[9] = molecular target: human PCSK9 with a C-terminal myc-myc-hexahistidine tag (human) (UniProt Q8NBP7); assay: blocking ELISA pH 5.75, 500 pM hPCSK9-mmH vs coated hLDLR EGFA-hFc
[10] = molecular target: human PCSK9 with a C-terminal myc-myc-hexahistidine tag (human) (UniProt Q8NBP7); assay: SPR (Biacore), 37 °C; antibody captured on anti-human Fc surface, hPCSK9-mmH injected (3.125-50 nM); association at pH 7.4, dissociation at pH 6.0
[11] = molecular target: human PCSK9 with a C-terminal myc-myc-hexahistidine tag (human) (UniProt Q8NBP7); assay: SPR (Biacore), 37 °C; antibody captured on anti-human Fc surface, hPCSK9-mmH injected (3.125-50 nM); association at pH 7.4, dissociation at pH 7.2
[12] = molecular target: human PCSK9 with a C-terminal myc-myc-hexahistidine tag (human) (UniProt Q8NBP7); assay: SPR (Biacore), 37 °C; antibody captured on anti-human Fc surface, hPCSK9-mmH injected (3.125-50 nM); association at pH 7.4, dissociation at pH 7.4
[13] = molecular target: human PCSK9 with a C-terminal myc-myc-hexahistidine tag (human) (UniProt Q8NBP7); assay: SPR (Biacore), 37 °C; antibody captured on anti-human Fc surface, hPCSK9-mmH injected (3.125-50 nM); association at pH 7.4, dissociation at pH 5.75

B1: Comparator 7 (antibody, from another filing, IgG2, V domains shown)
VH: QVQLVQSGAEVKKPGASVKVSCKASGYTLTSYGISWVRQAPGQGLEWMGWVSFYNGNTNYAQKLQGRGTMTTDPSTSTAYMELRSLRSDDTAVYYCARGYGMDVWGQGTTVTVSS
VL: QSALTQPASVSGSPGQSITISCTGTSSDVGGYNSVSWYQQHPGKAPKLMIYEVSNRPSGVSNRFSGSKSGNTASLTISGLQAEDEADYYCNSYTSTSMVFGGGTKLTVLQ
IC50, LDL uptake in HepG2 cells, 2 nM hPCSK9-D374Y-mmH [1]: 0.97 nM
IC50, LDL uptake in HepG2 cells, 50 nM hPCSK9-mmH [2]: 8.9 nM
IC50, LDL uptake in HepG2 cells, 50 nM MfPCSK9-mmH [3]: 10.4 nM
KD ratio pH 6.0/pH 7.4 [4]: 0.28
ka ratio pH 6.0/pH 7.4 [4]: 1.65
kd ratio pH 6.0/pH 7.4 [4]: 0.47
t½ ratio pH 6.0/pH 7.4 [4]: 2.15
Kd [5]: 0.728 nM
koff [5]: 6.09e-05 s⁻¹
kon [5]: 83600 M⁻¹ s⁻¹
t½ [5]: 3.16 h
Kd [6]: 0.205 nM
koff [6]: 2.84e-05 s⁻¹
kon [6]: 138000 M⁻¹ s⁻¹
t½ [6]: 6.79 h
IC50 ratio (pH 5.75/pH 7.2) [7]: 1.3
IC50 [8]: 0.245 nM
IC50 [9]: 0.331 nM
t½ (dissociative half-life) [10]: 1.19 h
t½ (dissociative half-life) [11]: 1.47 h
t½ (dissociative half-life) [12]: 1.5 h
t½ (dissociative half-life) [13]: 1.44 h
